Experiment [1] addresses CD28 (human) (UniProt P10747).
For experiment [2], the target named is PD-L1 (human) (UniProt Q9NZQ7).
Target sequence in this assay (Q9NZQ7 19-290): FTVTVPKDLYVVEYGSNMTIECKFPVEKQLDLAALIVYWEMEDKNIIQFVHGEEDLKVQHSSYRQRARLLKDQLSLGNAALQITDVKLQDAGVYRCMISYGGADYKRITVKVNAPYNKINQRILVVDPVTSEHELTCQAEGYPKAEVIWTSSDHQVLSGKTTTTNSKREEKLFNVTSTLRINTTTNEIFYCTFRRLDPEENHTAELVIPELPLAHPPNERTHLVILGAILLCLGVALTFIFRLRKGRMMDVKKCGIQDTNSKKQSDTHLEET
For experiment [3], the target named is CD28 (human) (UniProt P10747). The source holds these as a separate data set.
The target of experiment [4] is PD-L1 (human) (UniProt Q9NZQ7). This is another data set of the same source.
Target sequence in this assay (Q9NZQ7 19-290): as above
Experiment [5] deals with CD28 (human) (UniProt P10747). Briefly: flow cytometry, Jurkat cells (CD28). In general terms: Flow cytometry measures light scatter and fluorescence of single cells or particles in a stream.
Experiment [6] concerns the target CD28 (human) (UniProt P10747). The source holds these as a separate data set.
Experiment [7] has as its target PD-L1 (human) (UniProt Q9NZQ7). The source holds these as a separate data set.
Target sequence in this assay (Q9NZQ7 19-290): as above
Experiment [8] concerns the target PD-L1 (human) (UniProt Q9NZQ7). Briefly: flow cytometry, CHO cells stably expressing PD-L1.
The target in experiment [9] is human CTLA-4 (human) (UniProt P16410). Briefly: flow cytometry, CHO cells stably expressing CTLA4.
Sequence of human CTLA-4 (human) (P16410 36-223): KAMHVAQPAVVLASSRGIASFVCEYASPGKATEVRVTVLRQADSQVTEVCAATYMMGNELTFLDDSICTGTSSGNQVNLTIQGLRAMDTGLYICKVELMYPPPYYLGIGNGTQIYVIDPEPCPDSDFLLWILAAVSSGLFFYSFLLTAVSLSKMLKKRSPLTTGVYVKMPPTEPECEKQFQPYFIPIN
For experiment [10], the target named is PD-L1 (human) (UniProt Q9NZQ7). Briefly: flow cytometry, MFI on CHO/PD-L1 over MFI on Jurkat (CD28).
Target sequence in this assay (Q9NZQ7 19-290): as the sequence (Q9NZQ7 19-290) above
For experiment [11], the target named is CD28 (human) (UniProt P10747). The source holds these as a separate data set.
Experiment [12] concerns the target PD-L1 (human) (UniProt Q9NZQ7). The source holds these as a separate data set.
Target sequence in this assay (Q9NZQ7 19-290): as above
For experiment [13], the target named is human CTLA-4 (human) (UniProt P16410). Briefly: flow cytometry, HEK293 cells transfected with human CTLA-4; negative control.
The target in experiment [14] is PD-L1 (human) (UniProt Q9NZQ7). Briefly: flow cytometry, HEK293 cells transfected with human PD-L1; negative control.
Target sequence in this assay (Q9NZQ7 19-290): as above
For experiment [15], the target named is CD28 (human) (UniProt P10747). Briefly: flow cytometry, HEK293 cells transfected with human CD28; negative control.
For experiment [16], the target named is CD28 (human) (UniProt P10747). Briefly: flow cytometry, Jurkat cells (CD28). This is another data set of the same source.
The target in experiment [17] is PD-L1 (human) (UniProt Q9NZQ7). Briefly: flow cytometry, CHO cells expressing PD-L1.
In experiment [18] the target is CD28 (human) (UniProt P10747). Briefly: flow cytometry, HEK293 cells transfected with human CD28.
For experiment [19], the target named is CD28 (human) (UniProt P10747). Briefly: flow cytometry, HEK293 cells transfected with full-length human CD28, PE anti-human Fc.
Experiment [20] has as its target CD28 (human) (UniProt P10747). The source holds these as a separate data set.
The target in experiment [21] is human CTLA-4 (human) (UniProt P16410). Briefly: flow cytometry, CHO cells stably expressing CTLA4. The source holds these as a separate data set.
The target in experiment [22] is PD-L1 (human) (UniProt Q9NZQ7). Briefly: flow cytometry, CHO cells stably expressing PD-L1. The source holds these as a separate data set.
In experiment [23] the target is human CTLA-4 (human) (UniProt P16410). Briefly: flow cytometry, CHO/CTLA4 cells; MFI over CD80 WT IgV-Fc.
In experiment [24] the target is PD-L1 (human) (UniProt Q9NZQ7). Briefly: flow cytometry, CHO/PD-L1 cells; MFI over CD80 WT IgV-Fc.
Experiment [25] concerns the target CD28 (human) (UniProt P10747). Briefly: flow cytometry, Jurkat cells (CD28); MFI over CD80 WT IgV-Fc.
The target of experiment [26] is CD28 (human) (UniProt P10747). This is another data set of the same source.
The target of experiment [27] is PD-L1 (human) (UniProt Q9NZQ7). This is another data set of the same source.

Read-outs that look alike come from different tables or passages of the source.

Sequence of WT CD80 ECD-Fc (inert) (Fc fusion) (chain): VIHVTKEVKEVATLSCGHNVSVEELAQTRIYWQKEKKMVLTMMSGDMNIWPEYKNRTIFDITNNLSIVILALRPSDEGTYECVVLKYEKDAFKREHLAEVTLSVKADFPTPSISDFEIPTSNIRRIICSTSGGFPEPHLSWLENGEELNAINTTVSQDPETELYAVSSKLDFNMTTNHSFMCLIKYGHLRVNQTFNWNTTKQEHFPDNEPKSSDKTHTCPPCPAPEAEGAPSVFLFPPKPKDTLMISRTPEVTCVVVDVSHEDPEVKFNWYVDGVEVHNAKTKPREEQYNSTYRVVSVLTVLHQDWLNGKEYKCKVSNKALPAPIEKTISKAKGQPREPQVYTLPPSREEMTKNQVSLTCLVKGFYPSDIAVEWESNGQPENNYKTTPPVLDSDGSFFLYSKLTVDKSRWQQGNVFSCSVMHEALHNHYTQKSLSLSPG

For “CD80 E35D/D46V/M47L/V68M/L85Q/E88D IgV-Fc, delta linker (Fc fusion)”, the IL2-luciferase reporter, fold increase in RLU over WT CD80-IgV-Fc at 5.0 nM with CD28 (human) [1] and with PD-L1 (human) [2] was 2.77 fold each time.
“CD80 E35D/M47V/L85M/R94Q IgV-Fc (Fc fusion)”: the IL2-luciferase reporter (RLU), fold increase over WT CD80-IgV-Fc at 5.0 nM in the experiment with CD28 (human) [3] and with PD-L1 (human) [4] was 1.2 fold each time.
For “CD80 E35D/M47V/N48K/V68M/K89N IgV-Fc, delta linker (Fc fusion)”, the IL2-luciferase reporter, fold increase in RLU over WT CD80-IgV-Fc at 5.0 nM with CD28 (human) [1] and with PD-L1 (human) [2] was 2.63 fold in each case.
Consider “CD80 IgV-Fc H18Y/E35D/M47I/V68M/Y87N (Fc fusion)”, for which the MFI at 33.3 nM with CD28 (human) [5] worked out at 1430 MFI; in the experiment with PD-L1 (human) [8], 9300 MFI; with human CTLA-4 (human) [9], 19700 MFI. In addition, the RLU at 5.0 nM: Fold Increase over WT CD80-IgV-Fc in the experiment with CD28 (human) [6] and in the experiment with PD-L1 (human) [7] was 5.5 fold throughout.
Turning to “CD80 IgV-Fc H18Y/E35D/M47L/V68M/A71G/L85M (Fc fusion)”, the Fold change to WT CD80 was found to be 69.1 fold with CD28 (human) [5], 140 fold in the experiment with PD-L1 (human) [8] and 19.8 fold with human CTLA-4 (human) [9]. Besides, the MFI at 33.3 nM with CD28 (human) [5] was determined as 2850 MFI; in the experiment with PD-L1 (human) [8] it was 9890 MFI; in the experiment with human CTLA-4 (human) [9], 20700 MFI. For the same substance, the RLU at 5.0 nM: Fold Increase over WT CD80-IgV-Fc in the experiment with CD28 (human) [6] and with PD-L1 (human) [7] was 5.5 fold in each case. Moreover, the Ratio of PDL1:CD28 with PD-L1 (human) [10] is 3.5.
Turning to “CD80 IgV-Fc H18Y/E35D/M47L/Y53F/V68M/A71G (Fc fusion)”, the RLU at 5.0 nM: Fold Increase over WT CD80-IgV-Fc with CD28 (human) [11] came out at 0.3 fold; with PD-L1 (human) [12], 0.3 fold; in the experiment with CD28 (human) [6], 5.7 fold; with PD-L1 (human) [7], 5.7 fold. The Fold change to WT CD80 was determined as 11.6 fold in the experiment with CD28 (human) [5], 135 fold with PD-L1 (human) [8] and 18.7 fold in the experiment with human CTLA-4 (human) [9]. Besides, the values for the MFI at 33.3 nM with CD28 (human) [5], with PD-L1 (human) [8] and with human CTLA-4 (human) [9] were 478 MFI, 9580 MFI and 19500 MFI, respectively. In the experiment with PD-L1 (human) [10], the Ratio of PDL1:CD28 turned out to be 20.
Regarding “CD80 V22A/E35D/M47L/A71G IgV-Fc (Fc fusion)”, the IL2-luciferase reporter (RLU), fold increase over WT CD80-IgV-Fc at 5.0 nM with CD28 (human) [3] and with PD-L1 (human) [4] was 6.5 fold throughout.
Fc only: the MFI at 66.6 nM with human CTLA-4 (human) [13] was 5960; with CD28 (human) [15], 2590. In the experiment with PD-L1 (human) [14], this substance came in with an MFI at 22.2 nM of 4740.
Consider WT CD80 ECD-Fc (Fc fusion), for which the MFI at 33.3 nM stood at 46 MFI in the experiment with CD28 (human) [5]; 31 MFI with CD28 (human) [16]; 30 MFI with CD28 (human) [16] (record 2); 52 MFI with PD-L1 (human) [17]; 58 MFI with PD-L1 (human) [8]. The substance further showed an MFI at 66.6 nM with CD28 (human) [18] of 24800.
In turn, WT CD80 ECD-Fc (inert) (Fc fusion) had an MFI at 66.6 nM with CD28 (human) [19] of 3070 MFI. In the experiment with CD28 (human) [20], this substance returned a Jurkat/IL2 reporter RLU at 50 nM, CHO/OKT3 aAPC without PD-L1 of 420 RLU.
Turning to “variant CD80 IgV-Fc (inert) H18Y/A26Q/E35D/M47T/V68M/A71G/D90G (Fc fusion)”, the figures for the MFI at 33.3 nM with human CTLA-4 (human) [21], in the experiment with PD-L1 (human) [22] and with CD28 (human) [16] were 16700 MFI, 24400 MFI and 6730 MFI, respectively. The Fold change to WT CD80 came to 12 fold with human CTLA-4 (human) [23], 148 fold in the experiment with PD-L1 (human) [24] and 66 fold in the experiment with CD28 (human) [25]. Moreover, the IL2-luciferase reporter, fold increase in RLU over WT CD80-IgV-Fc at 5.0 nM with CD28 (human) [26] and with PD-L1 (human) [27] was 5.8 fold in each case.

Values taken from patent US20220177587A1, “METHODS AND USES OF VARIANT CD80 FUSION PROTEINS AND RELATED CONSTRUCTS” (Alpine Immune Sciences, Inc., priority 2018, published 2022).
